We go through one molecule from US6110457.

In this assay the target is T1, bovine fetuin (type IV; Sigma Chemical Company) (bovine) (UniProt P12763).
T1 sequence: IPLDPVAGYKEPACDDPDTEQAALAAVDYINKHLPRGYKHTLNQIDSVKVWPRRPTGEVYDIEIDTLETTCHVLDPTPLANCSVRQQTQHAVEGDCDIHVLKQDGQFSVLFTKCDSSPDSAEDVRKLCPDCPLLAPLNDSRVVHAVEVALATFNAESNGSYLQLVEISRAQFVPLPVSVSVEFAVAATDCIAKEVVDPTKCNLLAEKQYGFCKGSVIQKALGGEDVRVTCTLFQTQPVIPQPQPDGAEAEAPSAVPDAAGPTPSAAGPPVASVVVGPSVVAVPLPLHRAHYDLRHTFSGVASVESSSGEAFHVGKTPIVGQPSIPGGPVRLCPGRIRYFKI

B1: hemagglutinin-neuraminidase protein, HN, of wild-type HPIV-3 (JS) (enzyme)
chain: MEYWKHTNHGKDAGNELETSMATHGNKLTNKIIYILWTIILVLLSIVFIIVLINSIKSEKAHESLLQDINNEFMEITEKIQMASDNTNDLIQSGVNTRLLTIQSHVQNYIPISLTQQMSDLRKFISEITIRNDNQEVLPQRITHDVGIKPLNPDDFWRCTSGLPSLMKTPKIRLMPGPGLLAMPTTVDGCVRTPSLVINDLIYAYTSNLITRGCQDIGKSYQVLQIGIITVNSDLVPDLNPRISHTFNINDNRKSCSLALLNTDVYQLCSTPKVDERSDYASSGIEDIVLDIVNYDGSISTTRFKNNNISFDQPYAALYPSVGPGIYYKGKIIFLGYGGLEHPINENVICNTTGCPGKTQRDCNQASHSPWFSDRRMVNSIIVVDKGLNSIPKLKVWTISMRQNYWGSEGRLLLLGNKIYIYTRSTSWHSKLQLGIIDITDYSDIRIKWTWHNVLSRPGNNECPWGHSCPDGCITGVYTDAYPLNPTGSIVSSVILDSQKSRVNPVITYSTATERVNELAILNRTLSAGYTTTSCITHYNKGYCFHIVEINHKSLNTFQPMLFKTEIPKSCS
Turning to B1, the Neuraminidase activity with Fetuin (optical density values at 549nm) (optical density at 549nm) came to 1.11.
